Data set [1] has as its system DUX4-FL (DUX4 ORF + 3'UTR, RenLuc-DUX4-FL). Nature of the data set: Dual-luciferase assay, RenLuc-DUX4-FL reporter co-transfected with miRNA plasmids in HEK293 cells. It counts as cell-based, human. From the text: FIG. 1A. Dual-luciferase assay to test the ability of U6.mir-675 to target DUX4. Shown here is the mir-675 expression plasmid used in this study. In this construct, the RNA polymerase III U6 promoter (U6p) controls the expression of mir-675. A terminal signal formed of a stretch of six T nucleotides allows the termination of transcription. On the right, the secondary structure of the mir-675 along with its 5′ and 3′ end flanking sequences (Boxed) is shown. At the 5′ end, the flanking sequence is of 40 nucleotides long and at the 3′ end, the flanking sequence is of 47 nucleotides long starting from the nucleotide at position 114. U6.mir-675 was tested to target DUX4 using the dual-luciferase assay. To do this, DUX4 was cloned in the RenLuc-DUX4-FL expression plasmid (FIG. 1A), i.e., DUX4-FL (DUX4 ORF without V5 tag+3′UTR) was PCR amplified using CMV.DUX4-FLΔV5 as template with the following primers: forward: 5′ […] 3′ (SEQ ID NO: 125), reverse: 5′ […] 3′ (SEQ ID NO: 126). The PCR product was then cloned into a previously designed RenLuc SD5 mutant plasmid using XhoI/SpeI restriction sites and the RenLuc.SD5 mutant-DUX4 3′UTR plasmid backbone. The Renilla luciferase gene has a splicing donor mutation (*SID5) that prevents the alternative splicing of the DUX4-FL mRNA (Ansseau et al. (2015) PLoS One, 10, e0118813). The dual-luciferase assay was performed by co-transfecting the RenLuc-DUX4-FL and U6.mir-675 expression plasmids into the human embryonic kidney HEK293 cells. 48 hours after transfection, both the Renilla and Firefly luciferase activities were measured. The latter was used to normalize for Renilla luciferase activity. The non-targeting RenLuc control backbone plasmid (RenLuc) was co-transfected with U6.mir-675 and the RenLuc-DUX4-FL co-transfected with U6.milacZ as negative control reactions. In the other reactions, mir-675 reduced the relative Renilla luciferase activity by 24±3% (P<0.0001, ANOVA, N=3), 28±2% (P<0.0001, ANOVA, N=3) and 33±3% (P<0.0001, ANOVA, N=3) at a molarity ratio U6.mir-675: RenLuc-DUX4-FL (n:n) of 10 to 1, 20 to 1 and 40 to 1, respectively. All readings were normalized to the U6.milacZ (negative control). Six replicate data were averaged per experiment and individual experiments were performed in triplicate (N=3). Results were reported as the average relative Renilla luciferase activity±SEM for all combined experiments. […] A representative western blot gel and the quantification results of three independent western blot replicates (N=3) performed on 15 μg of total protein extracts collected from HEK293 cells 24 hours after co-transfection with the AAV.CMV.DUX4-FL and the U6.mir-675 or the human long non-coding H19 expression plasmid (CMV.H19) is shown here. […]

The test system of data set [2] is mir-675R (reverse complementary sequence of mir-675-5p). Kind of data set: Dual-luciferase assay with mir-675 perfect target site (mir-675R) as Renilla 3'UTR. The format is cell-based, human. Particulars: mir-675R perfect target site; normalized to milacZ. From the text: The QPCR was done using the Taqman probes designed to recognize the mature sequence of mir-675-5p and -3p. mir-675-3p expression was 2.20±0.15-fold higher than that of mir-675-5p (P<0.0001, ANOVA, N=3). Gene expression was normalized to the housekeeping gene RPL13A. Results were reported as the average relative gene expression±SEM of three replicates (N=3). […] The miRNA (pmoles) was used at 40-fold of the RenLuc-DUX4-FL (pmoles). When testing the U6.mir-675-3p construct, the relative Renilla luciferase kept on average 95% (P<0.2, ANOVA) of its activity, even though U6.mir-675-3p expressed high levels of mir-675-3p relative to the negative control mir-675-5p levels. On the other hand, U6.mir-675-5p was able to reduce the relative Renilla luciferase activity on average by 33±3% (P<0.0001, ANOVA, N=3). All readings were normalized to the milacZ negative control. Results were reported as the average relative Renilla luciferase activity±SEM of three replicates (N=3). […] This sequence was cloned as a 3′UTR downstream the Renilla luciferase gene. […] All readings were normalized to the milacZ negative control. […]
Dual Luciferase Assay. […] Luciferase activity was measured 24h or 48h after transfection. DUX4 gene silencing was determined as previously described [Wallace et al., Mol. Ther. Methods Clin. Dev. […]

These results are taken from patent publication US20240093191A1, “COMPOSITIONS AND METHODS FOR TREATING DISEASE ASSOCIATED WITH DUX4 OVEREXPRESSION” (RESEARCH INSTITUTE AT NATIONWIDE CHILDREN'S HOSPITAL, priority 2021, published 2024).

B1: U6.mir-675: U6 promoter-driven mir-675 expression plasmid with 40 nt 5' and 47 nt 3' flanking sequences (nucleic acid)
DNA: GACGCCGCCATCTCTAGGCCCGCGCCGGCCCCCTCGCACAGACTTGTGGGAGAAGCTCGGCTACTCCCCTGCCCCGGTTAATTTGCATATAATATTTCCTAGTAACTATAGAGGCTTAATGTGCGATAAAAGACAGATAATCTGTTCTTTTTAATACTAGCTACATTTTACATGATAGGCTTGGATTTCTATAAGAGATACAAATACTAAATTATTATTTTAAAAAACAGCACAAAAGGAAACTCACCCTAACTGTAAAGTAATTGTGTGTTTTGAGACTATAAATATCCCTTGGAGAAAAGCCTTGTTTGCGTTTAGTGAACCGTCAGATGGTACCGTTTAAACTCGAGCCCAGGGTCTGGTGCGGAGAGGGCCCACAGTGGACTTGGTGACGCTGTATGCCCTCACCGCTCAGCCCCTGGGACTAGAGCGGCCGCCACAGCGGGGAGATCCAGACATGATAAGATACATTTTTT
For the molecule B1, the “reduction of relative Renilla luciferase activity” value in data set [1] (miRNA:RenLuc-DUX4-FL molar ratio 10 to 1, 48 h, normalized to U6.milacZ) amounted to 24±3%; in data set [1] (miRNA:RenLuc-DUX4-FL molar ratio 20 to 1, 48 h, normalized to U6.milacZ), 28±2%; in data set [1] (miRNA:RenLuc-DUX4-FL molar ratio 40 to 1, normalized to milacZ) it was 33±3%. In data set [2], the “reduction of relative Renilla luciferase activity (maximum inhibition)” value stood at 41±12%.
